Tests used:
[1] = biological target: T1, Fis (Factor for Inversion Stimulation) (Escherichia coli, UniProt P0A6R3 P0A6R3:1-98); assay: EMSA; single shift only, no doubly shifted band up to 2200 nM Fis with 1 nM DNA; sites bound mutually exclusively; conditions: chain copies: 2 (dimer, stated); label: 5' biotin; self-complementary linear duplex
Experimental: (§1) FIG. 9 illustrates the mobility shift experiments for 11 and 7 base pair overlapping and 23 base pair separated Fis sites. Each lane contains increasing concentrations of Fis protein, beginning with no Fis, Fis diluted 1 to 64, etc. The 1:1 dilution is at 2200 nM Fis. This concentration was chosen intentionally so that with 1 nM DNA per reaction, the protein/DNA ratio is 2-fold higher than that needed to strongly shift DNA containing the 8.9 bit wild-type hin distal Fis site (Bruist et al. (1987) *Genes Dev.* 1: 762–772). Marker lanes (M) contain 10 ng of biotinylated […] hinfI digested DNA standards (Life Technologies, Inc.). Sizes are indicated in bp. The lowest band in most lanes of the figure is single-stranded oligonucleotide DNA. In the "Separated 23" experiment, at high concentrations, Fis proteins are apparently able to capture the single-stranded DNA when it has folded into a hairpin. This produces a faint band near the 100 bp marker.

[2] = biological target: T1, Fis (Factor for Inversion Stimulation); assay: EMSA; double shift; both sites bound simultaneously; up to 2200 nM Fis, 1 nM DNA; conditions: chain copies: 2 (dimer, stated); label: 5' biotin; self-complementary linear duplex
Experimental: as §1

T1 sequence (P0A6R3 whole entry, one chain of several): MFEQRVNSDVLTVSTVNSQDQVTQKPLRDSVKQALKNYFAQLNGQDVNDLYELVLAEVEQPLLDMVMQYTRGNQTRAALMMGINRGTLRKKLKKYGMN

Binder | binding result [1] | binding result [2]
overlap 11 Fis sites (dsDNA) DNA 1: TATTCTTTGCTCAAAATTTGATCAAATTTTGAGCAAAGAATA DNA 2: TATTCTTTGCTCAAAATTTGATCAAATTTTGAGCAAAGAATA | binds | 
overlap 7 Fis sites (dsDNA) DNA 1: AGGCTTTTGCTCAAAGTTTAAACTTTGAGCAAAAGCCT DNA 2: AGGCTTTTGCTCAAAGTTTAAACTTTGAGCAAAAGCCT | binds | 
separated 23 Fis sites (dsDNA) DNA 1: GGAATTCTTTGCTCAAAATTTGATCAGGATCCTGATCAAATTTTGAGCAAAGAATTCC DNA 2: GGAATTCTTTGCTCAAAATTTGATCAGGATCCTGATCAAATTTTGAGCAAAGAATTCC |  | binds
